In US20140357844A1 (RINAT NEUROSCIENCE, published 2014):

Key:
[1] = biological target: T1, cynomolgus monkey Trop-2-hFc (cynomolgus monkey, UniProt A0A2K5UE71 27-274); assay: SPR (Biacore T200), cynomolgus Trop-2-hFc captured by anti-human Fc, Fab as analyte
T1 construct: also called cynoTrop-2; not shown: human Fc
T1 sequence: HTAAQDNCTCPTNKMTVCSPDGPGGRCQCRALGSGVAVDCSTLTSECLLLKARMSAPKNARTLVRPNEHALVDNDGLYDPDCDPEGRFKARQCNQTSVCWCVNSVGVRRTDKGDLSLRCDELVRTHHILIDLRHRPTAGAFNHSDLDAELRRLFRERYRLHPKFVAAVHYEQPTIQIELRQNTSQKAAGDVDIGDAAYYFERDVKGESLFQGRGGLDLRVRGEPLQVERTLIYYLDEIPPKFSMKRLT

[2] = biological target: T2, Trop-2 on Trop-2 expressing tumor cells (human, UniProt P09758 27-323); assay: flow cytometry, Colo205 cells (Trop-2+), 1 ug antibody per 300,000 cells
T2 construct: Endogenous Trop-2 of human tumour cell lines; also called Trop-2 positive tumor cells; A431 (Trop-2+++)
T2 sequence: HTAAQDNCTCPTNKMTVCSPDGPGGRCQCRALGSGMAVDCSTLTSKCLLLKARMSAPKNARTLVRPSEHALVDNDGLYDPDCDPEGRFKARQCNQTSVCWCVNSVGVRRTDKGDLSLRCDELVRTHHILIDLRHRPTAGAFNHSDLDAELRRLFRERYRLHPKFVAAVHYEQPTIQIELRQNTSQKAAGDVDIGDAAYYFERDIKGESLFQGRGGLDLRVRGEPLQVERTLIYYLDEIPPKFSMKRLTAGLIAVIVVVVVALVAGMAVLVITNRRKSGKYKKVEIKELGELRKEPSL

[3] = biological target: T2, Trop-2 on Trop-2 expressing tumor cells; assay: flow cytometry, A431 cells (Trop-2+++), 0.5 ug antibody per 200,000 cells
Method: For A431 cell staining, 200,000 cells were incubated with 0.5 ug antibody in 100 uL binding buffer (PBS (Phosphate Buffered Saline)+0.5% BSA (Bovine Serum Albumin)), followed by incubation with Dylight488-conjugated goat anti-human (Fab′)-2-specific secondary antibody from Jackson immunoresearch Laboratories (West Grove, Pa.).

Row | Binder | Kd [1] [nM] | % positive [2] [%] | MFI [2] | % positive [3] [%] | MFI [3]
1 | chimeric 7E6 recombinant Fab fragment (Fab, V domains shown, Recombinant chimeric Fab; also called mouse7E6) VH: QVQLKESGPGLVAPSQSLSITCTVSGFSLTSYGVHWVRQPPGKGLEWLGVIWTGGSTDYNSALMSRLSINKDNSKSQVFLKMNSLQTDDTAMYYCARDGDYDRYTMDYWGQGTSVTVSS VL: DIVLTQSPASLAVSLGQRATISCRASKSVSTSGYSYMHWYQQKPGQPPKLLIYLASNLESGVPARFSGSGSGTDFTLNIHPVEEEDAATYYCQHSRELPYTFGGGTKLEIK | 16.5 | – | – | – | –
2 | h7E6_WT antibody (human IgG1) (antibody, V domains shown, Human IgG1) VH: QVQLQESGPGLVKPSETLSLTCTVSGGSISSYGVHWIRQPPGKGLEWIGVIWTGGSTDYNSALMSRVTISVDTSKNQFSLKLSSVTAADTAVYYCARDGDYDRYTMDYWGQGTLVTVSS VL: DIVMTQSPDSLAVSLGERATINCRASKSVSTSGYSYMHWYQQKPGQPPKLLIYLASNLESGVPDRFSGSGSGTDFTLTISSLQAEDVAVYYCQHSRELPYTFGQGTKLEIK | – | 99 | 1760 | 94.8 | 102000
3 | h7E6_L antibody (human IgG1) (antibody, V domains shown, Human IgG1) VH: QVQLQESGPGLVKPSETLSLTCTVSGGSISSYGVHWIRQPPGKGLEWIGVIWTGGSTDYNSALMSRVTISVDTSKNQFSLKLSSVTAADTAVYYCARDGDYDRYTMDYWGQGTLVTVSS VL: DIVMTQSPDSLAVSLGERATINCRASKSVSTSLYSYMHWYQQKPGQPPKLLIYLASNLESGVPDRFSGSGSGTDFTLTISSLQAEDVAVYYCQHSRELPYTFGQGTKLEIK | – | 100 | 2470 | 95.1 | 110000
4 | h7E6_N antibody (human IgG1) (antibody, V domains shown, Human IgG1) VH: QVQLQESGPGLVKPSETLSLTCTVSGGSISSYGVHWIRQPPGKGLEWIGVIWTGGSTDYNSALMSRVTISVDTSKNQFSLKLSSVTAADTAVYYCARDGDYDRYTMDYWGQGTLVTVSS VL: DIVMTQSPDSLAVSLGERATINCRASKSVSTSNYSYMHWYQQKPGQPPKLLIYLASNLESGVPDRFSGSGSGTDFTLTISSLQAEDVAVYYCQHSRELPYTFGQGTKLEIK | – | 100 | 2700 | 98.6 | 149000
5 | h7E6_SVG antibody (human IgG1) (antibody, V domains shown) VH: QVQLQESGPGLVKPSETLSLTCTVSGGSISSYGVHWIRQPPGKGLEWIGVIWTSGVTDYNSALMGRVTISVDTSKNQFSLKLSSVTAADTAVYYCARDGDYDRYTMDYWGQGTLVTVSS VL: DIVMTQSPDSLAVSLGERATINCRASKSVSTSGYSYMHWYQQKPGQPPKLLIYLASNLESGVPDRFSGSGSGTDFTLTISSLQAEDVAVYYCQHSRELPYTFGQGTKLEIK | – | 100 | 2420 | 96.7 | 121000
6 | h7E6_SVGL antibody (human IgG1) (antibody, V domains shown, Human IgG1) VH: QVQLQESGPGLVKPSETLSLTCTVSGGSISSYGVHWIRQPPGKGLEWIGVIWTSGVTDYNSALMGRVTISVDTSKNQFSLKLSSVTAADTAVYYCARDGDYDRYTMDYWGQGTLVTVSS VL: DIVMTQSPDSLAVSLGERATINCRASKSVSTSLYSYMHWYQQKPGQPPKLLIYLASNLESGVPDRFSGSGSGTDFTLTISSLQAEDVAVYYCQHSRELPYTFGQGTKLEIK | – | 100 | 2420 | 93.1 | 107000
7 | h7E6_SVGN antibody (human IgG1) (antibody, V domains shown, Human IgG1) VH: QVQLQESGPGLVKPSETLSLTCTVSGGSISSYGVHWIRQPPGKGLEWIGVIWTSGVTDYNSALMGRVTISVDTSKNQFSLKLSSVTAADTAVYYCARDGDYDRYTMDYWGQGTLVTVSS VL: DIVMTQSPDSLAVSLGERATINCRASKSVSTSNYSYMHWYQQKPGQPPKLLIYLASNLESGVPDRFSGSGSGTDFTLTISSLQAEDVAVYYCQHSRELPYTFGQGTKLEIK | – | 100 | 2730 | 98.1 | 128000
